In PMC2683942, “Unc5B Interacts with FLRT3 and Rnd1 to Modulate Cell Adhesion in Xenopus Embryos” (PLoS ONE, 2009):

B1: soluble alkaline phosphatase-FLRT3 ectodomain fusion protein (AP-FLRT3ΔTM) (domain or fragment, Xenopus, UniProt Q70AK3 29-527, looked up)
chain: KPCPSVCRCDAGFIYCNDRDLTSIPSGIPDDATTLYLQNNQINNAGIPSDLKGLDKVERIYLYRNSLDEFPINLPKNVKELHLQENNIRTITYDALLQIPFIEELHLDDNSVSAVSIEDGAFRDNIFLRLLFLSRNHLSTIPWGLPKTIEELRLDDNRISTISEISLQDLTNLKRLVLDGNLLNNNGLGERVFMNLINLTELSLVRNSLTSPPANLPGTSLRKLYLQENHMNYVPPNSFADLTQLYRLDMSNNNLTALPQGIFDDLDNLTQLFLRNNPWYCGCKMKWVRDWLQSLPSKVNVRGLMCQAPERVRGMTIKDLNKELFDCKDRIGSNTIHVTTTMLNSLLPAQGQWPVPVTKQPEIRPPDINKIFRTTPIPVKKIITIQVKSITTETIYISWKVALPMTALRLSWQLGHSPVFGSITETIVTGDRAEYLLTALEPESPYRICMVPMETGNIYLSDETPVCIETETAPLKMYNPTTTLNREQEKEPYKNSSLP
notes: FLRT3, Xenopus, ectodomain (ΔTM); also called AP-tagged FLRT3ΔTM; source: conditioned medium, concentrated
B2: Unc5D (splice variant of the mouse Unc5D gene) (receptor)
chain: ARGADGSEILPDSIPSAPGTLPHFIEEPEDAYIIKSNPIALRCKARPAMQIFFKCNGEWVHQNEHVSEESLDESSGLKVREVFINVTRQQVEDFHGPEDYWCQCVAWSHLGTSKSRKASVRIAYLRKNFEQDPQGREVPIEGMIVLHCRPPEGVPAAEVEWLKNEEPIDSEQDENIDTRADHNLIIRQARLSDSGNYTCMAANIVAKRRSLSATVVVYVNGGWSSWTEWSACNVRCGRGWQKRSRTCTNPAPLNGGAFCEGMSVQKITCTALCPVDGSWEVWSEWSVCSPECEHLRIRECTAPPPRNGGKFCEGLSQESENCTDGLCILDKKPLHEIKPQSIENASDIALYSGLGAAVVAVAVLVIGVTLYRRSHSDYGVDVIDSSALTGNSLLLNPAMQPDLTVSRTYSGPICLQDPLDKELMTESSLFNPLSDIKVKVQSSFMVSLGVSERAEYHGKNHSGTFPHGNNRGFSTIHPRNKTPYIQNLSSLPTRTELRTTGVFGHLGGRLVMPNTGVSLLIPHGAIPEENSWEIYMSINQGEPSLQSDGSEVLLSPEVTCGPPDMLVTTPFALTIPHCADVSSEHWNIHLKKRTQQGKWEEVMSVEDESTSCYCLLDPFACHVLLDSFGTYALTGEPITDCAVKQLKVAVFGCMSCNSLDYNLRVYCVDNTPCAFQEVISDERHQGGQLLEEPKLLHFKGNTFSLQVSVLDIPPFLWRIKPFTACQEVPFSRVWSSNRQPLHCAFSLERYTPTTTQLSCKICIRQLKGHEQILQVQTSILESERETITFFAQEDSTFPAQTGPKAFKIPYSIRQRICATFDTPNAKGKDWQMLAQKNSINRNLSYFATQSSPSAVILNLWEARHQQDGDLDSLACALEEIGRTHTKLSNITEPQIDDADFNYSRQNGL

What was measured:
[1] = molecular target: T1, Xenopus Unc5B (Xenopus, UniProt Q8JGT4 31-943); assay: equilibrium binding of an alkaline phosphatase fusion protein to transfected cells, binding curves and Scatchard analysis; different amounts of concentrated AP-FLRT3ΔTM conditioned medium on transfected cells, 1 h at RT; washed with PBS containing 0.2 M NaCl; cells lysed; AP activity read at 405 nm, normalised to cell number; settings: partners not purified
T1 construct: Netrin receptor Unc5B, Xenopus; Constructs are in Text S1; source: HEK293T, transfected, on cells

[2] = molecular target: B1; assay: as above; settings: partners not purified

T1 sequence (Q8JGT4 31-943): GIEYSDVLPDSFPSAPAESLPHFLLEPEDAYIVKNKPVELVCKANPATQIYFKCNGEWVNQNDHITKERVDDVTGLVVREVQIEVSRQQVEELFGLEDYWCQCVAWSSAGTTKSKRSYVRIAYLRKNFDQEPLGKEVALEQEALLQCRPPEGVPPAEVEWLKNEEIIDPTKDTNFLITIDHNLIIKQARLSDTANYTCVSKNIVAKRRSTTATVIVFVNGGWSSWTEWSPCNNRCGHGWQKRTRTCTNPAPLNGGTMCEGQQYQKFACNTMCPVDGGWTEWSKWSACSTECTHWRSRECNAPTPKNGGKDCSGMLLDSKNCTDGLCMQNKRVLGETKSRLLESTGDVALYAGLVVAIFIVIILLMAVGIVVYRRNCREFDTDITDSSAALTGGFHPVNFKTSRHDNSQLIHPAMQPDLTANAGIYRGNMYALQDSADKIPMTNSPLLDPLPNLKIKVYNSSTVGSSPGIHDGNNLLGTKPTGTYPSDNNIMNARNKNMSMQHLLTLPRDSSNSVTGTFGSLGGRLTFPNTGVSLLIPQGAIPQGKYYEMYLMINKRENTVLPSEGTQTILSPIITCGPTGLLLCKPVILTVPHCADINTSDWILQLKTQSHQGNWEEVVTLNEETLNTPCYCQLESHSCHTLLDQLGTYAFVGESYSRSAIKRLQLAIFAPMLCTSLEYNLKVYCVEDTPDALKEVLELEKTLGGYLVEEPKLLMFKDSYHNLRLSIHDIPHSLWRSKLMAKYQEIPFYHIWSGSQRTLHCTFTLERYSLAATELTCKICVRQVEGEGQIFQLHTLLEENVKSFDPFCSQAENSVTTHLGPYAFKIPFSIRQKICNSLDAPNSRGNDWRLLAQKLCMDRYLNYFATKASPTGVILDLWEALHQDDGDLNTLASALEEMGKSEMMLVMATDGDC

Row | Kd [1] [µM] | Kd [2] [µM] | Binder
1 | 0.05 |  | B1
2 |  | 0.026 | B2
